Patent publication US20200362306A1 (published 2020)

B1: Single domain anti-MSLN binder 4 (SD4) (VHH)
VHH: EVQLVESGGGLVQPGGSLRLSCAASGSTSSINTMYWYRQAPGKERELVAFISSGGSTNVRDSVKGRFTISRDNSKNTLYLQMNSLRAEDTAVYYCNTYIPYGGTLHDFWGQGTLVTVSS
notes: also called anti-MSLN-SD4
B2: Single domain anti-MSLN binder 1 (SD1) (VHH)
VHH: EVQLVESGGGLVQPGGSLRLSCAASGGDWSANFMYWYRQAPGKQRELVARISGRGVVDYVESVKGRFTISRDNSKNTLYLQMNSLRAEDTAVYYCAVASYWGQGTLVTVSS
notes: also called anti-MSLN-SD1

Biological target: T1, human mesothelin (human, UniProt Q13421 296-580, limits assumed)
T1 construct: also called MSLN
T1 sequence (Q13421 other isoform, or with tags, fused parts or gaps limits assumed): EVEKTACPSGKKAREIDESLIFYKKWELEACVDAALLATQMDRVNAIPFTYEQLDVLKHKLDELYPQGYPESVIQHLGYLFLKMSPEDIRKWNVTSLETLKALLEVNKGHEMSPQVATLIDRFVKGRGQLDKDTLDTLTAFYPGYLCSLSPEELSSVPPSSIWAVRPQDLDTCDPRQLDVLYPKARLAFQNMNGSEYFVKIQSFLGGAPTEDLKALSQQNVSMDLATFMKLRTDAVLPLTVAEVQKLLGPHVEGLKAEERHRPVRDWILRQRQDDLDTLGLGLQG
Assay: method not stated; affinity given in parentheses for the binder

| Binder | Kd |
| --- | --- |
| B1 | 6 nM |
| B2 | 25 nM |
